B1: Partitioning defective protein 3 (Caenorhabditis elegans), Q17353 (parent)
chain: MSASSTSSSSTSCPEGGEPSGSCKSSDEGESTLKKRMQQYGIASGYANSSISTLDRSQYQSLPLNGTRRVTVQFGRMKIVVPWKESDQTVGQLADAALLRYKKARGMANEDRIHVHRLECASDGGILDMDDVLEEVFDLNYDQILAITDEANGGSTTPTYSQIQKQQHHYAQPLPYARKFDGGPSTPIASAFGSVTVNHQAHRAASPYNVGFARSNSRDFAPQPTHSKERRDSVVEVSSFDQIPQSGLRVSTPKPSRQSEDVIDGKPMNQPILRSSLRTEASGSRTEEATPVKQSRVTLSPEVEKKLAEQDERKSERRKHYDKNPGRFARGSDRKSRITDALLDARDRIADQLESQNPAEETKSQMIRVKIDQGPMPGTSLVTFPPIPEKSENEKQLGIEVNAVFDESSELPGTSEPTKLSSVQIMKIEDGGRIAKDGRIRVGDCIVAIDGKPVDQMSIIRVRASISDLAAVTSRPVTLIINRSLESFLEQESSAKPIQSALQQANTQYIGHTTVVELIKSSNGFGFTVTGRETAKGERLFYIGTVKPYGVALGHLKSGDRLLEINGTPTGQWTQSEIVEKLKETMVGEKIKFLVSRVSQSAIMSTSASSENKENEETLKVVEEEKIPQKLPLPALMTPPVPKDTPALSPSGASRFEIVIPFINGSSSAGLGVSLKARVSKKSNGSKVDCGIFIKNVMHGGAAFKEGGLRVDDRIVGVEDIDLEPLDNREAQAALAKKLKEVGMISSNVRLTISRYNECNPGQISRDLSRITVDASSPSPSSRMSSHTAPDSLLPSPATRGTSSSGADSSHSRQSSASSAVPAVPARLTERDSIVSDGTSRNDESELPDSADPFNREGLGRKSLSEKRGMGAAADPQHIKLFQDIKHQRQNSAPTSSTQKRSKSQPRSSSQRNYRSPMKLVDLPTTAAASASTNSQNLDDSDMLNRRSQSMESINRPVESILRGTGQIPTGSSSKVQFMQAASPDQHPFPPGAALLRLKNEESRSRDKSRRKSMGNPFSAMRNFFGFGSKSRDASPEKTPTESVQLRSVERPKSIIDERNNGSSERAPPPLPPHQSQRRGSGGNVFVDYGEPYGLIPQYPHNTTSGYESYADSELYDRYAAHRYHPRGGPIIDEDEYIYRQQSTSGNSPINTSSYVNYGLPASNAYHVGSRIPPQTSSGSISKTSGAMRRVYPAEYDEDVAYHQQIPQQSTRYQQGSGSGRGNADYHHMFNSWFAYTGGGAVGAAPVIKSSYGSSPVRIAAASAIERGESFVVEPVSGSSASATDRRGRSTSSGAVASGSSSTGFQYAAKEKYADARSGKFNGGSTRLFIPRHGGGLSAAAFATNFGGEAYETRGGGAGGSPSQYRRRDQGPPHRFPQY
partner: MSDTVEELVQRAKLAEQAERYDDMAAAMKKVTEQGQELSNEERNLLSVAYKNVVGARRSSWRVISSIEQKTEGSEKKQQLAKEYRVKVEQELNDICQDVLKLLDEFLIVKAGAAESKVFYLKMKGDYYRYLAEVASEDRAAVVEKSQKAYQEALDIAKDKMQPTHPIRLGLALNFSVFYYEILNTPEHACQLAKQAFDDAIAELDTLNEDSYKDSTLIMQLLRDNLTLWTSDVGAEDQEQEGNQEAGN

Variants of: B1
Conditions: with 14331_caeel par-5, P41932

Row | Variant | effect of a mutation on the interaction
1 | S960A | decreasing interaction

Reference: IntAct's records for PubMed 14675534
